Where a chain is given by its changes, count along the chain named. Each block holds one binder with its values, some of them ahead of it.
Biological target: T1, glycoprotein Ibα (GPIbα) on human platelets (Homo sapiens, UniProt P07359)
T1 construct: human platelet glycoprotein Ibα, endogenous on platelets; On platelets GPIbα stands in the GPIb-IX complex with GPIbβ and GPIX; also called full length GPIbα expressed on the cell surface; source: endogenous, on human platelets
Experiment: flow cytometry on cells; human platelets (1.5 x 10^6 cells/well) incubated with Fab fragments at room temperature for 20 min, FITC-conjugated goat anti-mouse IgG, MFI of 10,000 cells
Settings: one partner purified

binding result: binds
B1: wild-type 5G6 Fab fragment (recombinant) (Fab, V domains shown)
VH: QVTLKESGPGILQPSQTLSLTCSFSGFSLSTSNMGVVWIRQPSGKGLEWLLHILWNDGKFYNPALKSRLTISKDTYNNQVFLKIANVDTADTATYYCARLFTTTTSGYFDVWGAGTTVTVSS
VL: DIQMTQSPASLSASVGETVTITCRASGNIYNYLAWYQQKQGKSPQLLVYNAKTLADGVPSRFSGSGSGTQYSLKINSLQPEDFGSYFCQHFWDTPWTFGGGTKLEIK
notes: heavy chain of 5G6 Fab, as the heavy chain of m1; light chain of 5G6 Fab, as the light chain of m1; cDNA of both chains cloned from 5G6 hybridoma mRNA into pcDNA3.1 with a C-terminal 6xHis tag; also called 5G6-WT; source: CHO cells, transiently cotransfected, purified from medium (Ni-NTA, Superdex 200)

binding result: no binding
B2: mutant 5G6 Fab 5G6-M2 (Fab, V domains shown)
VH: B1 VH with T102A, T103A, T104A, T105A
VL: B1 VL with D93A
notes: as the heavy chain of m2 with Thr102-105 of CDRH3 replaced with Ala; as the light chain of m2 with Asp93 of CDRL3 replaced with Ala; five point mutations in the interface

Source: article PMC4840364 (Scientific Reports, 2016)
